The values below come from patent US20190282704A1.

The target of assay [1] is wildtype feline IL-31 (Feline_IL31_wildtype) (feline). As to the kind of experiment: SPR (Biacore), immobilised IL-31, 1:1 fit. A general note: In SPR one partner is held on a chip, and binding of the other changes the refractive index at the surface.
Assay [2] concerns the target canine IL-31 (Canine_IL31) (canine). In words: SPR (Biacore), immobilised IL-31, 1:1 fit.

Sequence of canine IL-31 (Canine_IL31) (canine) (chain, as listed by the source limits assumed, form in doubt): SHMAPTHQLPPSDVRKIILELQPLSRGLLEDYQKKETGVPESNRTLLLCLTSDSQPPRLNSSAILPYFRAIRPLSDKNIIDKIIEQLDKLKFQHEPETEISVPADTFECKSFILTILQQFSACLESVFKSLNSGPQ
Sequence of wildtype feline IL-31 (Feline_IL31_wildtype) (feline) (chain, as listed by the source limits assumed, form in doubt): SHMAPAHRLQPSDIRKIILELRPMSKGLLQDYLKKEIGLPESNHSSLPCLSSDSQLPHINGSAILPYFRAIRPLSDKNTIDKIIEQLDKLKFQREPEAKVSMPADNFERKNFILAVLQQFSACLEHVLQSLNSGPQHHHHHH

B1: Feline 15H05_VH1 mouse VL (antibody, V domains shown)
VH: QVLLVQSGAEVRTPGASVKIFCKASGYSFTSYTIHWLRQAPAQGLEWMGNINPTSGYTENNQRFKDRLTLTADTSTNTAYMELSSLRSADTAMYYCARWGFKYDGEWSFDVWGAGTTVTVSS
VL: DIQMNQSPSSLSASLGDTITVTCRASQGISIWLSWYQQKPGNIPKVLINKASNLHIGVPPRFSGSGSGTHFTLTITSLQPEDIATYYCLQSQTYPLTFGGGTKLEIN
In assay [1], B1 showed a Kd of 0.168 nM, a koff of 2.2e-05 s⁻¹ and a kon of 131000 M⁻¹ s⁻¹. For the same molecule, in assay [2], the Kd was 0.00246 nM, the koff is 2.66e-07 s⁻¹ and the association rate constant (kon) stood at 108000 M⁻¹ s⁻¹.

B2: Feline 15H05 3.3 (antibody, V domains shown)
VH: QVLLVQSGAEVRKPGASVKIFCKASGYSFTSYTIHWLRQAPEQGLEWMGNINPTSGYTENNQRFKDRLTLTADTSTNTAYMELSSLRSADTAMYYCARWGFKYDGEWSFDVWGAGTTVTVSS
VL: EVVLTQSSAFLSRTLKEKATITCRASQGISIWLSWYQQKPNQAPKLLVKKASNLHIGAPSRFSGSGSGTDFTLTISSPEPEDAATYYCLQSQTYPLTFGGGTKLGDQ
In assay [1], B2 came in with a Kd of 11.6 nM, a koff of 0.000886 s⁻¹ and a kon of 76300 M⁻¹ s⁻¹.

B3: Feline 15H05 1.1 V43I (antibody, V domains shown)
VH: QVLLVQSGAEVRTPGASVKIFCKASGYSFTSYTIHWLRQAPAQGLEWMGNINPTSGYTENNQRFKDRLTLTADTSTNTAYMELSSLRSADTAMYYCARWGFKYDGEWSFDVWGAGTTVTVSS
VL: EIQMTQSPSSLSASPGDRVTITCRASQGISIWLSWYQQKPGKIPKLLIYKASNLHIGVPSRFSGSGSGTDFTLTISSLEPEDAATYYCLQSQTYPLTFGGGTKLEIK
Consider B3, for which, in assay [1], the Kd amounted to 13.6 nM, the koff stood at 0.000401 s⁻¹ and the kon was determined as 29400 M⁻¹ s⁻¹.

B4: Feline 15H05 2.3 (antibody, V domains shown)
VH: QVLLVQSGAEVRTPGASVKIFCKASGYGFTSYTIHWVRQSPAQGLEWMGNINPTSGYTENNQRFKDRLTLTADTSTNTAYMELSSLRSADTAMYYCARWGFKYDGEWSFDVWGAGTTVTVSS
VL: EVVLTQSSAFLSRTLKEKATITCRASQGISIWLSWYQQKPNQAPKLLVKKASNLHIGAPSRFSGSGSGTDFTLTISSPEPEDAATYYCLQSQTYPLTFGGGTKLGDQ
In assay [1], B4 had an equilibrium dissociation constant (Kd) of 1.57 nM, a koff of 0.000535 s⁻¹ and a kon of 341000 M⁻¹ s⁻¹.

B5: Feline 15H05 1.1 Y49N (antibody, V domains shown)
VH: QVLLVQSGAEVRTPGASVKIFCKASGYSFTSYTIHWLRQAPAQGLEWMGNINPTSGYTENNQRFKDRLTLTADTSTNTAYMELSSLRSADTAMYYCARWGFKYDGEWSFDVWGAGTTVTVSS
VL: EIQMTQSPSSLSASPGDRVTITCRASQGISIWLSWYQQKPGKVPKLLINKASNLHIGVPSRFSGSGSGTDFTLTISSLEPEDAATYYCLQSQTYPLTFGGGTKLEIK
In assay [1], B5 yielded a Kd of 39.5 nM, a koff of 0.00095 s⁻¹ and an on-rate constant (kon) of 24000 M⁻¹ s⁻¹.

B6: Feline 15H05 1.1 L46V (antibody, V domains shown)
VH: QVLLVQSGAEVRTPGASVKIFCKASGYSFTSYTIHWLRQAPAQGLEWMGNINPTSGYTENNQRFKDRLTLTADTSTNTAYMELSSLRSADTAMYYCARWGFKYDGEWSFDVWGAGTTVTVSS
VL: EIQMTQSPSSLSASPGDRVTITCRASQGISIWLSWYQQKPGKVPKVLIYKASNLHIGVPSRFSGSGSGTDFTLTISSLEPEDAATYYCLQSQTYPLTFGGGTKLEIK
In assay [1], B6 came in with a Kd of 22.8 nM, a dissociation rate constant (koff) of 0.000811 s⁻¹ and a kon of 35500 M⁻¹ s⁻¹.

B7: Feline 15H05 1.1 FW2 (antibody, V domains shown)
VH: QVLLVQSGAEVRTPGASVKIFCKASGYSFTSYTIHWLRQAPAQGLEWMGNINPTSGYTENNQRFKDRLTLTADTSTNTAYMELSSLRSADTAMYYCARWGFKYDGEWSFDVWGAGTTVTVSS
VL: EIQMTQSPSSLSASPGDRVTITCRASQGISIWLSWYQQKPGNIPKVLINKASNLHIGVPSRFSGSGSGTDFTLTISSLEPEDAATYYCLQSQTYPLTFGGGTKLEIK
Turning to B7, in assay [1], the Kd was found to be 0.065 nM, the koff was found to be 2.49e-05 s⁻¹ and the kon came to 383000 M⁻¹ s⁻¹. Further, in assay [2], the Kd came out at 0.000431 nM, the koff is 1.66e-07 s⁻¹ and the kon is 384000 M⁻¹ s⁻¹.

B8: Feline 15H05 1.1 FW1 (antibody, V domains shown)
VH: QVLLVQSGAEVRTPGASVKIFCKASGYSFTSYTIHWLRQAPAQGLEWMGNINPTSGYTENNQRFKDRLTLTADTSTNTAYMELSSLRSADTAMYYCARWGFKYDGEWSFDVWGAGTTVTVSS
VL: DIQMNQSPSSLSASLGDTITVTCRASQGISIWLSWYQQKPGKVPKLLIYKASNLHIGVPSRFSGSGSGTDFTLTISSLEPEDAATYYCLQSQTYPLTFGGGTKLEIK
In assay [1], B8 yielded a dissociation constant (Kd) of 564 nM, a koff of 0.00286 s⁻¹ and a kon of 5060 M⁻¹ s⁻¹. For the same molecule, in assay [2], the Kd worked out at 813 nM, the koff turned out to be 0.0156 s⁻¹ and the kon came out at 19200 M⁻¹ s⁻¹.

B9: Feline 15H05 1.1 FW3 (antibody, V domains shown)
VH: QVLLVQSGAEVRTPGASVKIFCKASGYSFTSYTIHWLRQAPAQGLEWMGNINPTSGYTENNQRFKDRLTLTADTSTNTAYMELSSLRSADTAMYYCARWGFKYDGEWSFDVWGAGTTVTVSS
VL: EIQMTQSPSSLSASPGDRVTITCRASQGISIWLSWYQQKPGKVPKLLIYKASNLHIGVPPRFSGSGSGTHFTLTITSLQPEDIATYYCLQSQTYPLTFGGGTKLEIK
In assay [1], B9 registered a Kd of 0.0564 nM, a koff of 1.21e-05 s⁻¹ and a kon of 214000 M⁻¹ s⁻¹. In assay [2], this molecule yielded a Kd of 0.13 nM, a koff of 3.91e-07 s⁻¹ and a kon of 3000 M⁻¹ s⁻¹.

B10: Feline 15H05 1.1 K42N_V43I (antibody, V domains shown)
VH: QVLLVQSGAEVRTPGASVKIFCKASGYSFTSYTIHWLRQAPAQGLEWMGNINPTSGYTENNQRFKDRLTLTADTSTNTAYMELSSLRSADTAMYYCARWGFKYDGEWSFDVWGAGTTVTVSS
VL: EIQMTQSPSSLSASPGDRVTITCRASQGISIWLSWYQQKPGNIPKLLIYKASNLHIGVPSRFSGSGSGTDFTLTISSLEPEDAATYYCLQSQTYPLTFGGGTKLEIK
As to B10, in assay [1], the Kd amounted to 9.42 nM, the dissociation rate constant (koff) was found to be 0.0022 s⁻¹ and the kon turned out to be 234000 M⁻¹ s⁻¹.

B11: Feline 15H05_VH3 mouse VL (antibody, V domains shown)
VH: QVLLVQSGAEVRKPGASVKIFCKASGYSFTSYTIHWLRQAPEQGLEWMGNINPTSGYTENNQRFKDRLTLTADTSTNTAYMELSSLRSADTAMYYCARWGFKYDGEWSFDVWGAGTTVTVSS
VL: DIQMNQSPSSLSASLGDTITVTCRASQGISIWLSWYQQKPGNIPKVLINKASNLHIGVPPRFSGSGSGTHFTLTITSLQPEDIATYYCLQSQTYPLTFGGGTKLEIN
In assay [1], B11 came in with a Kd of 0.177 nM, an off-rate constant (koff) of 1.57e-05 s⁻¹ and a kon of 88900 M⁻¹ s⁻¹. In assay [2], the Kd amounted to 0.00264 nM, the koff stood at 2.64e-07 s⁻¹ and the kon turned out to be 100000 M⁻¹ s⁻¹.

B12: Feline 15H05 1.1 K42N (antibody, V domains shown)
VH: QVLLVQSGAEVRTPGASVKIFCKASGYSFTSYTIHWLRQAPAQGLEWMGNINPTSGYTENNQRFKDRLTLTADTSTNTAYMELSSLRSADTAMYYCARWGFKYDGEWSFDVWGAGTTVTVSS
VL: EIQMTQSPSSLSASPGDRVTITCRASQGISIWLSWYQQKPGNVPKLLIYKASNLHIGVPSRFSGSGSGTDFTLTISSLEPEDAATYYCLQSQTYPLTFGGGTKLEIK
In assay [1], B12 had a Kd of 6770 nM, a koff of 0.011 s⁻¹ and an on-rate (kon) of 1630 M⁻¹ s⁻¹.

B13: Feline 15H05 1.1_FW1_2 (antibody, V domains shown)
VH: QVLLVQSGAEVRTPGASVKIFCKASGYSFTSYTIHWLRQAPAQGLEWMGNINPTSGYTENNQRFKDRLTLTADTSTNTAYMELSSLRSADTAMYYCARWGFKYDGEWSFDVWGAGTTVTVSS
VL: DIQMNQSPSSLSASLGDTITVTCRASQGISIWLSWYQQKPGNIPKVLINKASNLHIGVPSRFSGSGSGTDFTLTISSLEPEDAATYYCLQSQTYPLTFGGGTKLEIK
For the molecule B13, in assay [1], the Kd came to 0.887 nM, the koff is 6.7e-06 s⁻¹ and the kon is 7560 M⁻¹ s⁻¹. In assay [2], this molecule yielded a Kd of 0.263 nM, a koff of 3.82e-06 s⁻¹ and an on-rate (kon) of 6910 M⁻¹ s⁻¹.

B14: Feline 15H05 VH2 mouse VL (antibody, V domains shown)
VH: QVLLVQSGAEVRTPGASVKIFCKASGYGFTSYTIHWVRQSPAQGLEWMGNINPTSGYTENNQRFKDRLTLTADTSTNTAYMELSSLRSADTAMYYCARWGFKYDGEWSFDVWGAGTTVTVSS
VL: DIQMNQSPSSLSASLGDTITVTCRASQGISIWLSWYQQKPGNIPKVLINKASNLHIGVPPRFSGSGSGTHFTLTITSLQPEDIATYYCLQSQTYPLTFGGGTKLEIN
As for B14, in assay [1], the Kd turned out to be 1.61 nM, the koff is 5.47e-05 s⁻¹ and the kon came out at 34000 M⁻¹ s⁻¹. Moreover, in assay [2], the Kd was 2.22 nM, the koff came to 0.000379 s⁻¹ and the kon amounted to 171000 M⁻¹ s⁻¹.

B15: ZTS-361 (antibody)
heavy: QVLLVQSGAEVRTPGASVKIFCKASGYSFTSYTIHWLRQAPAQGLEWMGNINPTSGYTENNQRFKDRLTLTADTSTNTAYMELSSLRSADTAMYYCARWGFKYDGEWSFDVWGAGTTVTVSSASTTAPSVFPLAPSCGTTSGATVALACLVLGYFPEPVTVSWNSGALTSGVHTFPAVLQASGLYSLSSMVTVPSSRWLSDTFTCNVAHPPSNTKVDKTVRKTDHPPGPKPCDCPKCPPPEAAGAPSIFIFPPKPKDTLSISRTPEVTCLVVDLGPDDSDVQITWFVDNTQVYTAKTSPREEQFNSTYRVVSVLPILHQDWLKGKEFKCKVNSKSLPSPIERTISKAKGQPHEPQVYVLPPAQEELSRNKVSVTCLIKSFHPPDIAVEWEITGQPEPENNYRTTPPQLDSDGTYFVYSKLSVDRSHWQRGNTYTCSVSHEALHSHHTQKSLTQSPGK
light: EIQMTQSPSSLSASPGDRVTITCRASQGISIWLSWYQQKPGNIPKVLINKASNLHIGVPSRFSGSGSGTDFTLTISSLEPEDAATYYCLQSQTYPLTFGGGTKLEIKRSDAQPSVFLFQPSLDELHTGSASIVCILNDFYPKEVNVKWKVDGVVQNKGIQESTTEQNSKDSTYSLSSTLTMSSTEYQSHEKFSCEVTHKSLASTLVKSFQRSECQRE
In assay [1], B15 came in with a Kd of 0.474 nM, a koff of 2.18e-05 s⁻¹ and a kon of 46000 M⁻¹ s⁻¹.

Usually Kd stands for a measure of binding affinity in units of concentration. High values mean weaker binding, low ones tighter binding. Broadly, the koff is the rate constant with which the complex falls apart. Lower therefore signals slow dissociation. By kon is commonly meant the second-order rate constant of association. The low end stands for slow association, the high end for fast association.
